Laboratory results from patent US20220002432A1 (VIRTUOSO BINCO, published 2022).

Columns and labels:
[1] = target: T1, ICAM1 on the surface of DU145 cells (human, UniProt P05362 28-532); test: flow cytometry, DU145 cells;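 note: purified antibodies in dilution series bound to cells for 1 h at 4 °C, detected with a fluorescent secondary antibody (1 h, 4 °C, dark), read by flow cytometry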
T1 construct: whole, on cells
Description: (§1) Harvested cells were centrifuged at 2000 rpm for 5 min and resuspended with 10-15 ml ice-cold culture medium. Cells were counted and then 3×10⁶ cells were resuspended per mL of blocking buffer (PBS plus 2% FBS). 100 μl of the cell suspension was dispensed into each well of a 96-well plate and incubated at room temperature for 10-20 min. […] While incubating, purified antibodies were diluted to the desired dilution with blocking buffer. After a 10-20 minutes incubation, cells were centrifuged for 5 min at 2000 rmp in a refrigerated centrifuge. Blocking buffer was aspirated, and cells were resuspended in 100 μl/well diluted antibodies and incubated for 1 hour at 4° C. The cells were then washed 3 times with PBS plus 2% FBS. After the final wash, the cells were resuspended in 100 μl 1:500 diluted secondary antibody (Invitrogen, Cat #: A10631) and incubated for 1 hour at 4° C. in the dark. The cells were then washed 3 times with 200 μl PBS by centrifuging at 2000 rpm for 5 min. After the last wash, the cells were resuspended in 300 μl cold PBS and analyzed on a FACSVerse™ (BD Biosciences) flow cytometer.

recombinant human ICAM1 [2] = target: T2, recombinant human ICAM1 (human, UniProt P05362 28-480, limits assumed); test: SPR (Biacore 8K), antibody captured, antigen injected
Description: (§2) The binding kinetics of the anti-CD38 and anti-ICAM1 antibodies were evaluated on a Biacore 8K instrument (GE Healthcare). Biacore Series S CM5 sensor chips were immobilized with monoclonal mouse anti-human IgG (Fc) antibody (human antibody capture kit from GE Healthcare). Antibodies were captured on each flow cell. Serial 3-fold dilutions of each antigen were injected at a flow rate of 30 μl/min. Each sample was analyzed with 1 min association and 10 min dissociation at room temperature (25° C.). After each injection, the chip was regenerated using 3M MgCl₂. A 1:1 Langmuir model of simultaneous fitting of kₒₙ and koff was used for kinetics analysis.

Rhesus-ICAM1 [3] = target: T3, Rhesus-ICAM1 (rhesus, UniProt Q5NKV6 28-480, limits assumed); test: as above
T3 sequence (looked up): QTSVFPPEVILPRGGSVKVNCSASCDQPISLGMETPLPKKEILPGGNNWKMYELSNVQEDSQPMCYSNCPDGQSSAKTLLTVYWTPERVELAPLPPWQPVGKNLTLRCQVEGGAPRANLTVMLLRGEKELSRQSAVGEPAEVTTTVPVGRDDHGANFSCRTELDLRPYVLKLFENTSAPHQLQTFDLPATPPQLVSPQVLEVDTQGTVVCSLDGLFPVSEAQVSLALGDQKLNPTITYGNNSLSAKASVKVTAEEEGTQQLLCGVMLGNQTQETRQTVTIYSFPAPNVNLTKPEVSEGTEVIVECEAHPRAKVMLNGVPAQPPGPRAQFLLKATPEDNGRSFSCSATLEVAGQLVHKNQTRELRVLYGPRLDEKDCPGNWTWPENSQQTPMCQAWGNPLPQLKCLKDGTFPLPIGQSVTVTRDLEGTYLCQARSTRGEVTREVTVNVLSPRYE
Description: as §2

recombinant human ICAM1 [4] = target: T2, recombinant human ICAM1; test: ELISA: plate coated with 1 ug/ml recombinant human ICAM1 ECD, serially diluted antibody, OD450
Description: (§3) The plate was coated overnight at 4° C. with 1 μg/ml recombinant CD38 or ICAM1. After washing 3 times, the plate was blocked with 300 μl 1% BSA in PBST at 37° C. for 1 hour. Serially diluted antibodies were added and incubated at 37° C. for 1 hour. The plate was then washed 4 times with PBST and incubated with 1:5000 diluted 2nd antibody (Sigma, Cat #A0293) at 37° C. for 1 hour.

Rhesus-ICAM1 [5] = target: T3, Rhesus-ICAM1; test: ELISA: plate coated with 1 ug/ml recombinant rhesus ICAM1 ECD, serially diluted antibody, OD450
Description: as §3

[6] = target: T4, CD38 on the surface of Daudi cells (human, UniProt P28907 1-300); test: flow cytometry, Daudi cells;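 note: purified antibodies incubated with Daudi cells for 1 h at 4 °C, bound antibody detected by fluorescent secondary antibody and read by flow cytometry as MFI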
T4 construct: whole, on cells
Description: as §1

recombinant human CD38 [7] = target: T5, recombinant human CD38 (human, UniProt P28907 43-300, limits assumed); test: SPR (Biacore 8K), antibody captured, antigen injected;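 note: antibodies held on a CM5 chip through anti-human IgG Fc, antigen in 3-fold serial dilutions, 1 min association then 10 min dissociation at 25 °C, 1:1 Langmuir global fit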
Description: as §2

cynomolgus CD38 ECD [8] = target: T6, cynomolgus CD38 ECD (cynomolgus, UniProt Q5VAN0 44-301, biotinylated on the AviTag during preparation); test: as above
T6 construct: also called Cyno-CD38; Avi-Cyno CD38 ECD
Description: as §2

recombinant human CD38 [9] = target: T5, recombinant human CD38; test: ELISA: plate coated with 1 ug/ml recombinant human CD38 ECD, serially diluted antibody, OD450
Description: as §3

cynomolgus CD38 ECD [10] = target: T6, cynomolgus CD38 ECD; test: ELISA: plate coated with 1 ug/ml recombinant cynomolgus CD38 ECD, serially diluted antibody, OD450
Description: as §3

T1 sequence (P05362 28-532): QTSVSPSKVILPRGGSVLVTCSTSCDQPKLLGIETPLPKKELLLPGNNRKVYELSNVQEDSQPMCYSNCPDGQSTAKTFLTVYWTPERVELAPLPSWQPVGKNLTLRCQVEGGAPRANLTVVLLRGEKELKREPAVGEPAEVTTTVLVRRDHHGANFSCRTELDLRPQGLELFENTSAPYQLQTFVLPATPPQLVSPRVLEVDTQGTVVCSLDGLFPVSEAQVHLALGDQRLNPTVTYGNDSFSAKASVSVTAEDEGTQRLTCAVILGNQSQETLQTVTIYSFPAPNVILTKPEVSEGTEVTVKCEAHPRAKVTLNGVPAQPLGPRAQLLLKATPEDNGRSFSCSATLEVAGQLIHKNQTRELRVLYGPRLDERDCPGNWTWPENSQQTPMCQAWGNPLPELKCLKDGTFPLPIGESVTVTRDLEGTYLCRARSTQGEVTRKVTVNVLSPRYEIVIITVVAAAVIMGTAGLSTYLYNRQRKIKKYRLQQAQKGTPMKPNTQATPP
T2 sequence (P05362 28-480 limits assumed): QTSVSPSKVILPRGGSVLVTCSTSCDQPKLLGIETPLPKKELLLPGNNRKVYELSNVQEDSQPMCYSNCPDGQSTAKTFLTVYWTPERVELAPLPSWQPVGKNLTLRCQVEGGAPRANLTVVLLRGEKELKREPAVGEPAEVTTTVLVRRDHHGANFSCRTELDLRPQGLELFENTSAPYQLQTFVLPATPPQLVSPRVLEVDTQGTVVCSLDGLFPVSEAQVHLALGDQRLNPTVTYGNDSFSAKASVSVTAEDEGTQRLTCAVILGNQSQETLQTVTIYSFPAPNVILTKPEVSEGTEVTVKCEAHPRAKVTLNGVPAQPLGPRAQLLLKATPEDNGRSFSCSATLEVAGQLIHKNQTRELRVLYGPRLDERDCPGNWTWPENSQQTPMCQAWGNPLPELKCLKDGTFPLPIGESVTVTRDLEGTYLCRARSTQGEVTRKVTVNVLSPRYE

Binder | EC50 [1] [nM] | Max Binding MFI [1] [MFI] | Kd (recombinant human ICAM1 [2]) [nM] | koff (recombinant human ICAM1 [2]) [s⁻¹] | kon (recombinant human ICAM1 [2]) [M⁻¹ s⁻¹] | Kd (Rhesus-ICAM1 [3]) [nM] | koff (Rhesus-ICAM1 [3]) [s⁻¹] | kon (Rhesus-ICAM1 [3]) [M⁻¹ s⁻¹] | EC50 (read off the curve) (recombinant human ICAM1 [4]) [nM] | EC50 (read off the curve) (Rhesus-ICAM1 [5]) [nM] | EC50 [6] [nM] | Max Binding MFI [6] [MFI] | Kd (recombinant human CD38 [7]) [nM] | koff (recombinant human CD38 [7]) [s⁻¹] | kon (recombinant human CD38 [7]) [M⁻¹ s⁻¹] | Kd (cynomolgus CD38 ECD [8]) [nM] | koff (cynomolgus CD38 ECD [8]) [s⁻¹] | kon (cynomolgus CD38 ECD [8]) [M⁻¹ s⁻¹] | EC50 (read off the curve) (recombinant human CD38 [9]) [nM] | EC50 (read off the curve) (cynomolgus CD38 ECD [10]) [nM]
14B3 (antibody, human IgG1, kappa, V domains shown, Rabbit-human chimeric anti-ICAM1: rabbit VH and VL on human IgG1 and kappa constant regions) VH: QSLEESGGDLVKPGASLTLTCTASGFSSSSGYYICWVRQAPGKGLEWIACIGAGSGAAYYASWAKGRFTMSKTSSTTVTLQMTSLTAADTATYFCARGGFVVGGGYGGYCFNLWGPGTLVTVSS VL: AQVLTQTASSVSATVGGTVTISCQSSESVDVNNLAWYQQKPGQPPKLLIYSASTLASGVPSRFKGSGSGTQFTLTVSDLESADAATYYCAGGYSGNIFAFGGGTAVVVKR | 6.01 | 2940 | 2.85 | 0.00027 | 94800 | 3.2 | 0.000596 | 186000 | ~0.04 | ~0.04 | – | – | – | – | – | – | – | – | – | –
21G2 (antibody, human IgG1, kappa, V domains shown, Rabbit-human chimeric anti-CD38: rabbit VH and VL on human IgG1 and kappa constant regions) VH: QSVEESGGRLVTPGTPLTLTCTVSGFSLSNYGVSWVRQAPGKGLEWIGYILTSGGTYYANWAQGRFTISKTSTTVDLKITSPTTEDTATYFCGRPKDSDSSAFVSLWGPGTLVTVSS VL: DVVMTQTPASVSEPVGGTVTINCQASESIYSNLAWYQQKPGQPPKLLIYKASTLASGVSSRFKGSGSGTEFTLTISDLESADAATYYCQANHMIVIYGNGFGGGTEVVVKR | – | – | – | – | – | – | – | – | – | – | 1.13 | 2150 | 0.19 | 3.1e-05 | 167000 | 1.71 | 0.000432 | 253000 | ~0.06 | ~0.06
20B5 (antibody, human IgG1, kappa, V domains shown, Rabbit-human chimeric anti-CD38: rabbit VH and VL on human IgG1 and kappa constant regions) VH: QSLEESGGDLVKPGASLTLTCTASGFSFSSRYWICWVRQAPGKGLEWIACIVAGTTNTYYASWAKGRFTISKTSSTTVTLQMTSLTAADTATYFCAGDPRTGSNVGYFNLWGPGTLVTVSS VL: AQVLTQTPSPVSAAVGGTVTINCQASQSVYNNNYLAWFQQKPGQPPKLLIYSASTLASGVPSRFKGSGSGTQFTLTISEVQSDDAATYYCQAYYSGGIYAFGGGTEVVVKR | – | – | – | – | – | – | – | – | – | – | 0.373 | 816 | 98.5 | 0.0341 | 346000 | 54.8 | 0.0322 | 588000 | – | ~0.06
26D4 (antibody, human IgG1, kappa, V domains shown, Rabbit-human chimeric anti-CD38: rabbit VH and VL on human IgG1 and kappa constant regions) VH: QEQLEESGGDLVKPEGSLTLTCTASGFSFSNDAICWVRQAPGKGLEWIACIYAGSGNTYYASWAKGRFSISKTSSTTVTLQMTSLTVADTATYFCASADTIDYFNLWGPGTLVTVSS VL: AQVLTQTPSPVSAAVGGTVTINCQASQSVYNNNYLAWYQQKPGQPPKLLIYRASNLASGVPSRFSASGSGTQFTLTISEVQSDDAATYYCQAYYRDPTTAFGGGTEVVVKR | – | – | – | – | – | – | – | – | – | – | 4.06 | 577 | 510 | 0.102 | 200000 | 43.8 | 0.0313 | 715000 | – | ~0.06
8E5 (antibody, human IgG1, kappa, V domains shown, Rabbit-human chimeric anti-ICAM1: rabbit VH and VL on human IgG1 and kappa constant regions) VH: QSLEESGGRLVTPGTPLTLTCTVSGFSLSNYAMNWVRQAPGKGLEWIGYISTRGSAYYASWAKGRFTISKTSTTVDLKMTSPTTEDTATYFCARGDLVGGGYIRGSFDPWGPGTLVTVSS VL: AQVLTQTPSPVSAAVGGTVTINCQSSQSVVSDKLLSWFQQKPGQPPKLLIYGASTLASGVPSRFKGSGSGTQFTLTISDVQSDDAATYYCAGAYSTDSDIRAFGGGTEVVVKR | 0.124 | 9190 | 24.4 | 0.00361 | 148000 | 7.06 | 0.00189 | 268000 | ~0.04 | ~0.04 | – | – | – | – | – | – | – | – | – | –
3D8 (antibody, human IgG1, kappa, V domains shown, Rabbit-human chimeric anti-ICAM1: rabbit VH and VL on human IgG1 and kappa constant regions) VH: QSLEESGGDLVKPGASLTLTCTASGFSFSSSYWMCWVRQAPGKGLEWIACIDGGSAGYNYYATWAKGRFTISKTSSTTVTLQMTSLTAADRATYFCARGPGSSYNLWGPGTLVTVSS VL: DIVMTQTPASVEAAVGGTVTIKCQASQSISSYLSWYQQKPGQPPKLLIYRASTLASGVPSRFKGSGSGTEFTLTISDLESADAATYYCQSYVFGSSRSYDNAFGGGTEVVVKR | 0.208 | 6430 | 16.8 | 0.00909 | 540000 | 17.3 | 0.0348 | 2.01e+06 | ~0.04 | ~0.04 | – | – | – | – | – | – | – | – | – | –
